Test results: PMC12237034

Tests used:
[1] = target: Coagulation factor XIa
[2] = target: Coagulation factor XIa; experiment: enzyme inhibition kinetics; XIa (0.5 nM) preincubated with peptide 30 min at 37 °C, chromogenic substrate S2366; 50 mM Tris pH 7.4, 140 mM NaCl, 5 mM CaCl2, 0.1% BSA; double reciprocal plots, mixed inhibition

**Q.** Which results are given for “Schistosoma Kunitz peptide Shp4 (Schistosoma haematobium peptide-repeat 4) (domain or fragment)”?
**A.** inhibition of XIa activity on a chromogenic substrate, concentration dependent [1]: 7.1 nM; Ki [2]: 3.35 nM; Ki' (towards the enzyme-substrate complex) [2]: 1.64 nM
